B1: AD-CEBP-1(aa 1–319) FL [C. elegans] / BD-IMA-3(aa 278–514) [C. elegans] (parent complex)
chain 1: MYSKLNYSHQKGDQALKHPHLVRLQQSEVRGFTDMPNNGASTSSAGSFARQDSLTIAASLQQRDRERHPVDFMETELDLGDYLQVLHDLDVPTDNVDFDDAELQKCNILYDGEHPYEQPELNGYERHVAYGTGYRVPGDYDQDGYKMNCEVKAETPDFGATKTRRAVKRPVPYDDYQKEYSEESSDMTDNDGSVDDSYFEPKSKKTKSAGLENFKPQTRARKYKLKADEEKAEPTYKLKRARNNDAVRKSRKKAKELQDKKEAEHDKMKRRIAELEGLLQSERDARRRDQDTLEQLLRNKGPMKEQRMPQRHILENFNK
chain 2: VVTHLVPLLGHVDVKVQTAALRAVGNIVTGTDEQTQLVLDSGVLRFMPGLLAHYKEKINKEAVWFVSNITAGNQQQVQDVFDAGIMPMIIHLLDRGDFPTQKEAAWAISNVTISGRPNQVEQMVKLGVLRPFCAMLSCTDSQIIQVVLDGINNILKMAGEAAEQVTSEIEECGGLDKIENLQNHENEDIYKLAFEIIDNFFSSDDETGNVEGAQSSAFGGDVPPVPDAPNGGWNFGK

Variants of: B1
Test: yeast two-hybrid, β-galactosidase activity; parent: 110; read off a plot

| response [Miller units] | Variant |
| --- | --- |
| ~110 | chain 1 K204A, chain 1 K205A, chain 1 K207A |
| ~17 | chain 1 K162A, chain 1 R164A, chain 1 K168A, chain 1 R169A |
| ~190 | chain 1 K239A, chain 1 R240A |
